# According to patent US9011842:
# Tested on: T1, 33-mer peptide fragment of α-gliadin, LQLQPFPQPQLPYPQPQLPYPQPQLPYPQPQPF (SEQ ID NO:1)
# T1 sequence: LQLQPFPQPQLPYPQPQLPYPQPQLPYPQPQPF
substance,measurement,value
pepsin,"digestion of the 33-mer peptide (HPLC-MS), in vitro gastrointestinal model, digestive enzymes only","The digestive enzymes only (pepsin, trypsin, and chymotrypsin) failed to digest the 33-mer peptide"
same,"hydrolysis of the 33-mer peptide (HPLC-MS), 15 hours, SGF pH 2.0","At gastric conditions (pH≈2.0), pepsin did not hydrolyze most of the 33-mer peptide"
Aorsin A,"degradation of the 33-mer peptide (ELISA of intact 33-mer), 240 min, pH 4.0",Incubation with either Aorsin A or B for about 240 minutes resulted in complete degradation of the 33-mer peptide
same,"hydrolysis of the 33-mer peptide (HPLC-MS), citrate buffer pH 4.0","When incubated with the 33-mer peptide in acidic conditions (pH≈4.0), Aorsin A hydrolyzed the 33-mer"
Myxococcus xanthus prolyl endopeptidase,"hydrolysis of the 33-mer peptide (HPLC-MS and ELISA), SIF pH 6.8","CPY, MX-PEP, and AN-PEP hydrolyze the 33-mer peptide. AN-PEP appears to have the strongest activity against the 33-mer peptide, followed by CPY and then MX-PEP"
same,"hydrolysis of the 33-mer peptide (HPLC-MS), 4 hours, buffer pH 4.0 to 7.0",MX-PEP did not hydrolyze the 33-mer peptide at an acidic pH
Aorsin B,"degradation of the 33-mer peptide (ELISA of intact 33-mer), 240 min, pH 4.0",Incubation with either Aorsin A or B for about 240 minutes resulted in complete degradation of the 33-mer peptide
same,"hydrolysis of the 33-mer peptide (HPLC-MS), citrate buffer pH 4.0","when incubated with the 33-mer peptide in acidic conditions (pH≈4.0), Aorsin B hydrolyzed the 33-mer"
trypsin,"digestion of the 33-mer peptide (HPLC-MS), in vitro gastrointestinal model, digestive enzymes only","The digestive enzymes only (pepsin, trypsin, and chymotrypsin) failed to digest the 33-mer peptide"
Aspergillus niger prolyl endopeptidase,"hydrolysis of the 33-mer peptide (HPLC-MS and ELISA), pH 5.0","CPY, MX-PEP, and AN-PEP hydrolyze the 33-mer peptide. AN-PEP appears to have the strongest activity against the 33-mer peptide, followed by CPY and then MX-PEP"
Neutral protease I,"degradation of the 33-mer peptide (ELISA of intact 33-mer), 0.1 mg/ml enzyme, SIF pH 6.8",NP I and NP II each exhibited a limited ability to degrade the 33-mer peptide
same,"percent of the 33-mer peptide degraded (ELISA), 60 min, SIF pH 6.8",NP I alone degraded about 40% of the 33-mer peptide
chymotrypsin,"digestion of the 33-mer peptide (HPLC-MS), in vitro gastrointestinal model, digestive enzymes only","The digestive enzymes only (pepsin, trypsin, and chymotrypsin) failed to digest the 33-mer peptide"
